Measured values reported in paper PMC8939299, “Molecular characterization of a novel GSTO2 of Fasciola hepatica and its roles in modulating murine macrophages” (Parasite, 2022).

Tested on: O=C1O[C@H]([C@@H](O)CO)C(=O)C1=O
Test: purified protein
Details: 1 mM GSH fixed, DHA 0-0.25 mM (Figure 3 legend: 0-2.5 mM), potassium phosphate, pH 7.5, 25 °C

rGSTO2 (Fasciola hepatica)
Km: 287 µM
